Measurements as given in the supplement of paper PMC9112550, “Optimization of the antimicrobial peptide Bac7 by deep mutational scanning” (BMC Biology, 2022).

These sequences were tested on Escherichia coli TOP10 (assay: shrunken log2 fold change of peptide-encoding DNA abundance (4.5 h post-induction vs induction); higher = less antimicrobial activity (less host growth inhibition)). Settings: time post-induction: 4.5 h; library: site-saturation at positions 5, 18, 19, 20.
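Also: peptides expressed intracellularly from a pBAD plasmid library in pooled LB shake-flask culture, induced with 0.3% L-arabinose, DNA abundance read by NGS, three biological replicates, DESeq2 with apeglm shrinkage.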

| Sequence | shrunken log2 fold change |
| --- | --- |
| RRIRHRPPRLPRPRPRPYITPRP | -1.23 |
| RRIRPRPPRLPRPRPRPQCFPRP | 0.185 |
| RRIRHRPPRLPRPRPRPTWMPRP | 3.02 |
| RRIRPRPPRLPRPRPRPWKYPRP | -0.269 |
| RRIRFRPPRLPRPRPRPQLMPRP | -0.32 |
| RRIRERPPRLPRPRPRPDGEPRP | -0.115 |
| RRIRSRPPRLPRPRPRPWHGPRP | -0.00232 |
| RRIRSRPPRLPRPRPRPNFNPRP | -0.298 |
| RRIRPRPPRLPRPRPRPFQKPRP | -0.163 |
| RRIRCRPPRLPRPRPRPHECPRP | -0.3 |
| RRIRDRPPRLPRPRPRPETHPRP | 0.739 |
| RRIRVRPPRLPRPRPRPMWDPRP | -0.101 |
| RRIRKRPPRLPRPRPRPVQQPRP | 0.368 |
| RRIRDRPPRLPRPRPRPTWSPRP | 0.235 |
| RRIRVRPPRLPRPRPRPCDPPRP | -0.107 |
| RRIRCRPPRLPRPRPRPGIDPRP | 0.0673 |
| RRIRWRPPRLPRPRPRPWARPRP | 0.135 |
| RRIRVRPPRLPRPRPRPLQGPRP | -0.292 |
| RRIRIRPPRLPRPRPRPYSKPRP | -1.2 |
| RRIRLRPPRLPRPRPRPAKPPRP | 1.22 |
| RRIRDRPPRLPRPRPRPIGFPRP | 0.0229 |
| RRIRCRPPRLPRPRPRPCTHPRP | -0.48 |
| RRIRGRPPRLPRPRPRPDMNPRP | 1.35 |
| RRIRIRPPRLPRPRPRPIHHPRP | -0.65 |
| RRIRHRPPRLPRPRPRPDQSPRP | -0.016 |

| Sequence | shrunken log2 fold change |
| --- | --- |
| RRIRIRPPRLPRPRPRPHGGPRP | -0.0479 |
| RRIRRRPPRLPRPRPRPARLPRP | 0.269 |
| RRIRIRPPRLPRPRPRPRNPPRP | -0.0124 |
| RRIRARPPRLPRPRPRPYDNPRP | -0.0875 |
| RRIRTRPPRLPRPRPRPKPMPRP | 0.0287 |
| RRIRIRPPRLPRPRPRPYMWPRP | -0.198 |
| RRIRSRPPRLPRPRPRPVPTPRP | 0.105 |
| RRIRWRPPRLPRPRPRPSEFPRP | 0.144 |
| RRIRMRPPRLPRPRPRPQFPPRP | 0.16 |
| RRIRMRPPRLPRPRPRPLPEPRP | 1.24 |
| RRIRLRPPRLPRPRPRPPKRPRP | 0.492 |
| RRIRPRPPRLPRPRPRPLWAPRP | 0.343 |
| RRIRYRPPRLPRPRPRPRMCPRP | -0.0134 |
| RRIRNRPPRLPRPRPRPKLTPRP | 2 |
| RRIRYRPPRLPRPRPRPCGLPRP | -0.107 |
| RRIRLRPPRLPRPRPRPFTQPRP | -0.337 |
| RRIRIRPPRLPRPRPRPKGQPRP | 0.143 |
| RRIRTRPPRLPRPRPRPLCNPRP | -0.484 |
| RRIRERPPRLPRPRPRPYTYPRP | -0.0595 |
| RRIRNRPPRLPRPRPRPCWTPRP | -0.0133 |
| RRIRYRPPRLPRPRPRPRPKPRP | 0.374 |
| RRIRFRPPRLPRPRPRPTWYPRP | -0.0222 |
| RRIRRRPPRLPRPRPRPDAIPRP | -0.0233 |
| RRIRLRPPRLPRPRPRPSEGPRP | -0.501 |
| RRIRDRPPRLPRPRPRPQLNPRP | -0.267 |

| Sequence | shrunken log2 fold change |
| --- | --- |
| RRIRWRPPRLPRPRPRPYTVPRP | -0.29 |
| RRIRKRPPRLPRPRPRPCLRPRP | -0.081 |
| RRIRIRPPRLPRPRPRPNMFPRP | -0.394 |
| RRIRFRPPRLPRPRPRPNVSPRP | -0.0196 |
| RRIRTRPPRLPRPRPRPTFQPRP | 0.0412 |
| RRIRERPPRLPRPRPRPEAMPRP | 0.0431 |
| RRIRDRPPRLPRPRPRPTWIPRP | -0.0164 |
| RRIRMRPPRLPRPRPRPQGPPRP | 0.246 |
| RRIRVRPPRLPRPRPRPFNTPRP | 2.64 |
| RRIRNRPPRLPRPRPRPDGGPRP | -0.323 |
| RRIRCRPPRLPRPRPRPNFNPRP | -0.372 |
| RRIRNRPPRLPRPRPRPWLSPRP | 0.0232 |
| RRIRERPPRLPRPRPRPTDWPRP | -0.145 |
| RRIRFRPPRLPRPRPRPLQTPRP | 0.165 |
| RRIRNRPPRLPRPRPRPSDFPRP | -0.00477 |
| RRIRNRPPRLPRPRPRPGLLPRP | -0.171 |
| RRIRCRPPRLPRPRPRPRMDPRP | -0.0539 |
| RRIRCRPPRLPRPRPRPESAPRP | 0.703 |
| RRIRWRPPRLPRPRPRPRATPRP | 1.26 |
| RRIRWRPPRLPRPRPRPWAAPRP | 0.351 |
| RRIRHRPPRLPRPRPRPHNEPRP | -0.458 |
| RRIRGRPPRLPRPRPRPGTSPRP | 0.278 |
| RRIRSRPPRLPRPRPRPWQKPRP | 0.14 |
| RRIRFRPPRLPRPRPRPDFRPRP | 0.00564 |
| RRIRERPPRLPRPRPRPPEWPRP | -0.0429 |

| Sequence | shrunken log2 fold change |
| --- | --- |
| RRIRERPPRLPRPRPRPPIPPRP | 0.281 |
| RRIRHRPPRLPRPRPRPMDMPRP | 0.0881 |
| RRIRGRPPRLPRPRPRPAFPPRP | 0.313 |
| RRIRMRPPRLPRPRPRPQHMPRP | -0.355 |
| RRIRFRPPRLPRPRPRPGHWPRP | 0.0649 |
| RRIRIRPPRLPRPRPRPCFIPRP | -0.503 |
| RRIRNRPPRLPRPRPRPTPKPRP | 0.222 |
| RRIRRRPPRLPRPRPRPASSPRP | -0.0219 |
| RRIRGRPPRLPRPRPRPLKPPRP | 0.609 |
| RRIRNRPPRLPRPRPRPGEFPRP | -0.00204 |
| RRIRDRPPRLPRPRPRPTYPPRP | -0.106 |
| RRIRDRPPRLPRPRPRPNFIPRP | -0.0733 |
| RRIRDRPPRLPRPRPRPWMPPRP | -0.11 |
| RRIRLRPPRLPRPRPRPWTDPRP | -0.279 |
| RRIRARPPRLPRPRPRPELNPRP | 0.746 |
| RRIRPRPPRLPRPRPRPTEIPRP | 0.000528 |
| RRIRVRPPRLPRPRPRPLQWPRP | 0.209 |
| RRIRARPPRLPRPRPRPNEFPRP | -0.362 |
| RRIRARPPRLPRPRPRPRGQPRP | 0.666 |
| RRIRFRPPRLPRPRPRPKLMPRP | 0.195 |
| RRIRWRPPRLPRPRPRPILMPRP | -0.286 |
| RRIRDRPPRLPRPRPRPSWSPRP | -0.369 |
| RRIRHRPPRLPRPRPRPGVEPRP | 0.0675 |
| RRIRPRPPRLPRPRPRPGLCPRP | 0.399 |
| RRIRHRPPRLPRPRPRPKHHPRP | -0.493 |

| Sequence | shrunken log2 fold change |
| --- | --- |
| RRIRNRPPRLPRPRPRPEKEPRP | -0.159 |
| RRIRVRPPRLPRPRPRPSQFPRP | -0.952 |
| RRIRCRPPRLPRPRPRPDLLPRP | -0.393 |
| RRIRARPPRLPRPRPRPQCEPRP | 0.724 |
| RRIRKRPPRLPRPRPRPGHIPRP | -0.0657 |
| RRIRERPPRLPRPRPRPHPAPRP | 0.039 |
| RRIRQRPPRLPRPRPRPFKWPRP | -0.185 |
| RRIRWRPPRLPRPRPRPPYIPRP | -0.3 |
| RRIRKRPPRLPRPRPRPTMIPRP | -0.0569 |
| RRIRRRPPRLPRPRPRPLHPPRP | 0.437 |
| RRIRHRPPRLPRPRPRPYIHPRP | -0.322 |
| RRIRNRPPRLPRPRPRPWVSPRP | 0.069 |
| RRIRVRPPRLPRPRPRPNYYPRP | -0.373 |
| RRIRPRPPRLPRPRPRPMNLPRP | 0.00249 |
| RRIRKRPPRLPRPRPRPTHHPRP | 0.897 |
| RRIRGRPPRLPRPRPRPCEQPRP | 0.48 |
| RRIRLRPPRLPRPRPRPYWQPRP | 0.0322 |
| RRIRPRPPRLPRPRPRPNWNPRP | -0.184 |
| RRIRERPPRLPRPRPRPNSHPRP | -0.8 |
| RRIRARPPRLPRPRPRPPNHPRP | 0.305 |
| RRIRERPPRLPRPRPRPKFHPRP | -0.554 |
| RRIRYRPPRLPRPRPRPQTCPRP | -0.0146 |
| RRIRDRPPRLPRPRPRPHQKPRP | 0.365 |
| RRIRDRPPRLPRPRPRPVERPRP | -0.00663 |
| RRIRRRPPRLPRPRPRPQVYPRP | -0.0473 |

| Sequence | shrunken log2 fold change |
| --- | --- |
| RRIRNRPPRLPRPRPRPGAGPRP | 0.234 |
| RRIRQRPPRLPRPRPRPVQFPRP | -0.0919 |
| RRIRTRPPRLPRPRPRPSLPPRP | -0.0317 |
| RRIRERPPRLPRPRPRPLWWPRP | 0.0601 |
| RRIRIRPPRLPRPRPRPEKKPRP | -0.0556 |
| RRIRLRPPRLPRPRPRPQTDPRP | -0.139 |
| RRIRGRPPRLPRPRPRPFRQPRP | 0.124 |
| RRIRMRPPRLPRPRPRPQVSPRP | 0.399 |
| RRIRVRPPRLPRPRPRPLDIPRP | -0.0121 |
| RRIRERPPRLPRPRPRPEHIPRP | -0.594 |
| RRIRERPPRLPRPRPRPQHIPRP | -0.15 |
| RRIRPRPPRLPRPRPRPENFPRP | 0.0102 |
| RRIRYRPPRLPRPRPRPYAPPRP | -0.784 |
| RRIRFRPPRLPRPRPRPEDPPRP | 0.379 |
| RRIRIRPPRLPRPRPRPLSEPRP | -0.0382 |
| RRIRQRPPRLPRPRPRPNHYPRP | -0.36 |
| RRIRCRPPRLPRPRPRPHLCPRP | -0.111 |
| RRIRERPPRLPRPRPRPKTGPRP | -0.0863 |
| RRIRLRPPRLPRPRPRPGIHPRP | -0.322 |
| RRIRPRPPRLPRPRPRPWSMPRP | -0.155 |
| RRIRGRPPRLPRPRPRPSVFPRP | 0.465 |
| RRIRVRPPRLPRPRPRPEEPPRP | 0.0911 |
| RRIRYRPPRLPRPRPRPWTKPRP | -0.319 |
| RRIRTRPPRLPRPRPRPFTAPRP | -0.473 |
| RRIRDRPPRLPRPRPRPKRWPRP | 0.0314 |
